Usually Kd stands for a measure of binding affinity in units of concentration. Low readings indicate tighter binding, high ones weaker binding.

Assay [1] addresses T1, Del 52 type mutant CALR protein (full-length) (human, UniProt P27797 18-417).
T1 construct: mature; also called 52-nucleotide deletion type; CALR Del 52
T1 sequence (looked up): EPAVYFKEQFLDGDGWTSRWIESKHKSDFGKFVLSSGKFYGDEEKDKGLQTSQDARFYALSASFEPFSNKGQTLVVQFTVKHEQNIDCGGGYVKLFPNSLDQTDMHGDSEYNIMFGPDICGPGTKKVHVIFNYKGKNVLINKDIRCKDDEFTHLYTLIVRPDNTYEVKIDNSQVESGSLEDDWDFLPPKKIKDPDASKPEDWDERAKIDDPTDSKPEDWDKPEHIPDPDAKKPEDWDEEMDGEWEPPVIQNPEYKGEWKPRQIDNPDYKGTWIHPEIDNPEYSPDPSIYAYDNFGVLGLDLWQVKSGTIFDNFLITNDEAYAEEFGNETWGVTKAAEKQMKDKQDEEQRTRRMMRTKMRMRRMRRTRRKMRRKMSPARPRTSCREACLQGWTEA
In words: immunoblotting and ELISA on Del 52 and its alanine mutants. The protocol:
It was verified that clone B3, C6, and G1 antibodies recognize the amino acid sequence used as an antigen on the mutant CALR protein. The reactivities of the respective antibodies against mutant CALR proteins each having alanine substituted for one amino acid at each position of the amino acids used as the antigen and the amino acids around it were evaluated by immunoblotting (FIG. 13A) and ELISA (FIG. 13B).
The Del 52 type mutant CALR proteins each having alanine (A) substituted for one amino acid at each position of the amino acids in the region from the 367th threonine (T) to the 378th arginine (R) or the protein not having substitution were expressed in HEK 293T cells, and culture supernatants containing secreted mutant CALR proteins were prepared by centrifugation (1,600 g×5 min, 4° C.). The resulting protein solutions were each heat-treated in the presence of SDS and a reducing agent, then developed on a gel by SDS polyacrylamide electrophoresis, electrically transferred on a PVDF membrane, and reacted with a TBS-T solution containing 5% skimmed milk at room temperature for 1 hour, followed by reaction with a 5% BSA/TBS-T solution containing a peroxidase-labeled clone B3, C6, or G1 antibody or a mouse anti-CALR antibody (Abcam plc., Cat #ab22683) at 4° C. overnight. The PVDF membrane reacted with the mouse anti-CALR antibody was washed with a TBS-T solution and was then reacted with a 5% skimmed milk/TBS-T solution containing a peroxidase-labeled anti-mouse IgG antibody (Jackson Immuno Research Inc., Cat #115-035-003) at room temperature for 1 hour. Subsequently, all of the PVDF membranes were washed with a TBS-T solution and were then reacted with a peroxidase luminescence reagent (Thermo Fisher Scientific K.K., Cat #34094). The resulting signals were detected using a FUSION image pickup apparatus (manufactured by Vilber-Lourmat S.A.).

For assay [2], the target named is T2, peptide having cysteine at the amino-terminal of the amino acid sequence (RRMMRTKMR) included in SEQ ID NO: 1.
T2 peptide: CRRMMRTKMR
Kind of assay: SPR. A general note: In SPR one partner is held on a chip, and binding of the other changes the refractive index at the surface.

Assay [3] concerns the target T3, peptide having cysteine at the amino-terminal of the amino acid sequence (RRMMRTKMR) included in SEQ ID NO: 1.
T3 construct: Synthetic peptide, analyte in SPR; also called antigen used for production of the antibody
T3 peptide: CRRMMRTKMR
In words: SPR (Biacore T200), clone B3 antibody immobilised, peptide at 1.25-20 nM. The protocol: Sensor chips (GE Healthcare, Cat #BR100530) for surface plasmon resonance analysis were loaded on a surface plasmon resonance analyzer Biacore T200 (GE Healthcare) and were equilibrated with an HBS-EP buffer (GE Healthcare, Cat #BR100669). Clone B3 antibody adjusted to a concentration of 10 μg/mL with Acetate 5.5 (GE Healthcare, Cat #BR100352) was immobilized using an Amine coupling kit (GE Healthcare, Cat #BR100050) at an immobilized amount of 200 RU. Subsequently, surface plasmon resonance was measured using a peptide having cysteine at the amino-terminal of the amino acid sequence ([…]) included in SEQ ID NO: 1 adjusted to concentrations of 20, 10, 5, 2.5, and 1.25 nM with an HBS-EP buffer, and the dissociation constant was acquired with Biacore T200 Evaluation Software.

B1: clone C6 antibody (antibody, V domains shown)
VH: QVQLQQSGAELVKPGSSVKISCKASGYTFTSYFVHWIKQQPGDGLEWIGWIYPGDGDTEYNHKFNGKSTLTADRSSSTAYMQLSSLTSEDSAVYFCARGNYYDGREVMDAWGQGASVTVSS
VL: DVVLTQTPPTLSATIGQSVSISCRSSQSLLDSDGETYLNWLLQRPGQSPQLLIYSVSNLESGVPNRFSGSGSETDFTLKISGMEAEDLGVYYCMQATHGPYTFGAGTKLELK
notes: Rat monoclonal antibody purified from a hybridoma, detected with anti-rat IgG; also called rat clone C6 antibody
With B1, in assay [1], the binding result is reported as “binds”.

B2: clone G1 antibody (antibody, V domains shown)
VH: QVQLQQSGAELVKPGSSVKISCKASGYTFTSYFVHWIKQQPGDGLEWIGWIYPGDGDTEYNQKFNGKATLTADRSSSTAYMQLSSLTSEDSAVYFCARGNYYDGREVMDAWGQGASVTVSS
VL: DVVLTQTPPTLSATIGQSVSISCRSSQSLLDSDGETYLNWLLQRPGQCPQLLIYSVSNLESGVPNRFSGSGSETDFTLKISGVEAEDLGVYYCMQGTHGPYTFGAGTKLELK
notes: Rat monoclonal antibody purified from a hybridoma, detected with anti-rat IgG; also called rat clone G1 antibody
As to B2, in assay [1], the binding result is on record as “binds”.

B3: clone B3 antibody (antibody, V domains shown)
VH: QVQLQQSGAELVKPGSSVKISCKASGYTFTRNFIHWIKQQPGNGLEWIGWIFPGDGDTEYNQKFNGKATLTADKSSSTAYMQLSSLTSEDSAVYFCARGNYNYEYFDYWGQGVMVTVSS
VL: DIQMTQSPASLSASLGETVSIECLASEDIYSYLAWYQQKPGKSPQLLIFAANRLQDGVPSRFSGSGSGTQFSLKISGMQPEDEGDYFCLQGSKFPYTFGPGTKLELN
notes: Rat monoclonal antibody purified from a hybridoma (WKY/Izm rat x mouse SP2 myeloma), detected with anti-rat IgG; also called rat clone B3 antibody
Molecule B3 displayed a Kd in assay [2] of 0.855 nM. For the same molecule, the binding result in assay [3] and in assay [1] was “binds” in each case.

The values are drawn from patent publication US20220098290A1 (JUNTENDO EDUCATIONAL FOUNDATION, published 2022).
